These results are taken from the Human Domainome abundance scans (Beltran et al. 2025).

± gives the uncertainty stated by the source.

B1: Tyrosine-protein kinase Lck, residues 63 to 120; numbered along this chain, P06239 (parent)
chain: DNLVIALHSYEPSHDGDLGFEKGEQLRILEQSGEWWKAQSLTTGQEGFIPFNFVAKAN

This series covers variants of B1. Briefly: abundance fitness (aPCA) (normalised: wild type 0, dead -1); higher = more abundant; growth selection in yeast, the domain comes from the species named. As to conditions: Homo sapiens.
Consider R27G, for which the abundance fitness is -0.881 ± 0.12. Turning to R27S, the abundance fitness is -0.465 ± 0.091. For R27K, the abundance fitness was -0.154 ± 0.14. Then R27F, with -0.448 ± 0.13.

As for R27P, the abundance fitness was -0.914 ± 0.29. The result for R27C reads -0.208 ± 0.13; that for R27E, -0.022 ± 0.14.

As for R27T, the abundance fitness is -0.24 ± 0.12. For the variant R27N, the abundance fitness is -0.471 ± 0.14. On to R27L, for which the abundance fitness was -0.056 ± 0.088. For the variant R27M, the abundance fitness is -0.309 ± 0.14. Take R27D: the abundance fitness is -0.421 ± 0.13.

R27I: the abundance fitness is -0.162 ± 0.14. As to R27V, the abundance fitness is -0.062 ± 0.089. Turning to R27H, the abundance fitness is -0.049 ± 0.13. Then F20D, with -0.845 ± 0.2; and F20M, with -0.293 ± 0.14; and F20A, with -0.52 ± 0.096. Consider F20C, for which the abundance fitness was -0.541 ± 0.14. The result for F20T reads -0.406 ± 0.16.

On to F20V, for which the abundance fitness is -0.222 ± 0.072.

F20W: the abundance fitness was -1.04 ± 0.19. Consider F20I, for which the abundance fitness is -0.47 ± 0.26.

Take F20N: the abundance fitness is -0.7 ± 0.33. As to F20L, the abundance fitness was -0.411 ± 0.11. Then F20P, with -0.818 ± 0.21; and F20G, with -0.921 ± 0.087; and F20H, with -0.836 ± 0.49. Take F20Q: the abundance fitness is -0.825 ± 0.17.

Regarding F20K, the abundance fitness is -0.705 ± 0.22. Regarding F20S, the abundance fitness is -0.949 ± 0.15. Then F20R, with -0.976 ± 0.11; and F20Y, with -0.756 ± 0.37. Take L18M: the abundance fitness is -0.295 ± 0.11. With L18C, the abundance fitness was -0.898 ± 0.21.

As for L18F, the abundance fitness was -0.449 ± 0.18.

Regarding L18N, the abundance fitness is -0.722 ± 0.17. In the case of L18I, the abundance fitness was -0.176 ± 0.1. In the case of L18H, the abundance fitness was -0.732 ± 0.16. As to L18Y, the abundance fitness was -0.725 ± 0.17. On to L18A, for which the abundance fitness is -0.591 ± 0.086. As to L18T, the abundance fitness was -0.714 ± 0.15. With L18R, the abundance fitness is -0.86 ± 0.12.

With L18S, the abundance fitness is -0.884 ± 0.12. Regarding L18K, the abundance fitness is -0.946 ± 0.31.

With L18V, the abundance fitness was -0.441 ± 0.076.

On to L18W, for which the abundance fitness was -0.978 ± 0.25. In the case of L18G, the abundance fitness is -0.717 ± 0.098. As for L18D, the abundance fitness was -0.779 ± 0.12. With L18E, the abundance fitness was -0.757 ± 0.11. For L18Q, the abundance fitness is -0.876 ± 0.17. The result for G19A reads -0.039 ± 0.085; that for G19E, -0.393 ± 0.11. Take G19Q: the abundance fitness is -0.256 ± 0.14. In the case of G19K, the abundance fitness is -0.108 ± 0.14. As for G19H, the abundance fitness is -0.299 ± 0.13.

As for G19W, the abundance fitness was -0.823 ± 0.16.

Consider G19I, for which the abundance fitness was -0.538 ± 0.22.

Consider G19F, for which the abundance fitness was -0.567 ± 0.2. Turning to G19T, the abundance fitness is -0.375 ± 0.13. The result for G19V reads -0.47 ± 0.085; that for G19D, -0.648 ± 0.14.

For the variant G19C, the abundance fitness was -0.16 ± 0.11. For the variant G19R, the abundance fitness was -0.142 ± 0.078. Regarding G19M, the abundance fitness was -0.31 ± 0.12. Consider G19Y, for which the abundance fitness is -0.55 ± 0.2. Then G19L, with -0.604 ± 0.1. Turning to G19P, the abundance fitness is -0.16 ± 0.14. Then G19N, with -0.397 ± 0.17; and S9A, with -0.235 ± 0.12. As for S9M, the abundance fitness is -0.473 ± 0.13. Turning to S9Y, the abundance fitness is -0.619 ± 0.16.

Turning to S9V, the abundance fitness is -0.676 ± 0.11. As to S9G, the abundance fitness is -0.116 ± 0.077.

Regarding S9H, the abundance fitness was -0.254 ± 0.15. In the case of S9L, the abundance fitness was -0.84 ± 0.12.

Consider S9I, for which the abundance fitness is -0.888 ± 0.2. For S9T, the abundance fitness was -0.046 ± 0.12. For S9K, the abundance fitness worked out at 0.017 ± 0.14.

Turning to S9R, the abundance fitness is -0.11 ± 0.072. As for S9Q, the abundance fitness is -0.276 ± 0.14. Take S9F: the abundance fitness is -0.798 ± 0.13.

Regarding S9E, the abundance fitness was -0.218 ± 0.1. With S9W, the abundance fitness was -0.923 ± 0.15. Then S9N, with 0.045 ± 0.12.

For S9P, the abundance fitness was -0.166 ± 0.12.

With S9C, the abundance fitness is -0.25 ± 0.12. Consider L7S, for which the abundance fitness was -0.21 ± 0.091. In the case of L7V, the abundance fitness was -0.161 ± 0.073. Regarding L7T, the abundance fitness was -0.224 ± 0.14. The result for L7Y reads -0.54 ± 0.22; that for E24L, -0.999 ± 0.13; that for E24D, -0.095 ± 0.11. Consider E24M, for which the abundance fitness is -0.673 ± 0.15.

Regarding E24Y, the abundance fitness was -0.829 ± 0.29. Consider E24H, for which the abundance fitness was -0.774 ± 0.15. Consider E24N, for which the abundance fitness was -0.608 ± 0.29.

Take E24P: the abundance fitness is -0.891 ± 0.15. Consider E24F, for which the abundance fitness was -0.997 ± 0.24.

With E24V, the abundance fitness is -0.835 ± 0.1. Consider E24I, for which the abundance fitness was -0.758 ± 0.29. With E24K, the abundance fitness was -0.82 ± 0.16. Regarding E24R, the abundance fitness is -0.902 ± 0.12. Consider E24Q, for which the abundance fitness is -0.385 ± 0.13. Take E24A: the abundance fitness was -0.357 ± 0.093. E24C: the abundance fitness is -0.628 ± 0.12.

For the variant E24G, the abundance fitness was -0.725 ± 0.076. With E24T, the abundance fitness was -0.754 ± 0.16. For E24S, the abundance fitness is -0.506 ± 0.094. Turning to E24W, the abundance fitness is -0.704 ± 0.13. On to D17M, for which the abundance fitness was -0.022 ± 0.12.

As to D17G, the abundance fitness is -0.042 ± 0.067. D17S: the abundance fitness was -0.045 ± 0.11.

As to D17P, the abundance fitness is -0.762 ± 0.15. In the case of D17R, the abundance fitness was -0.009 ± 0.066. In the case of D17T, the abundance fitness is -0.255 ± 0.14. Consider D17C, for which the abundance fitness is -0.022 ± 0.12. On to D17A, for which the abundance fitness is -0.006 ± 0.093.

As to D17K, the abundance fitness came to 0.051 ± 0.14. On to D17H, for which the abundance fitness turned out to be 0.011 ± 0.16. Take D17N: the abundance fitness is -0.177 ± 0.13. For D17E, the abundance fitness stood at 0.063 ± 0.091. In the case of D17W, the abundance fitness is -0.083 ± 0.084. Take D17F: the abundance fitness is -0.229 ± 0.3.

D17V: the abundance fitness was -0.111 ± 0.089. For the variant D17L, the abundance fitness is -0.116 ± 0.082.

As to E21D, the abundance fitness is -0.205 ± 0.19. For the variant E21A, the abundance fitness was -0.062 ± 0.086. Turning to E21V, the abundance fitness was determined as 0.022 ± 0.081. As to E21G, the abundance fitness was -0.349 ± 0.075. E21H: the abundance fitness was -0.001 ± 0.3.

With E21L, the abundance fitness was -0.11 ± 0.1. Then E21R, with -0.052 ± 0.08. The result for E21N reads -0.248 ± 0.2; that for E21F, -0.515 ± 0.21. Turning to E21M, the abundance fitness was -0.134 ± 0.12. Consider E21S, for which the abundance fitness is -0.042 ± 0.13. With E21Q, the abundance fitness worked out at 0.007 ± 0.13. Regarding E21W, the abundance fitness is -0.481 ± 0.11. On to E21P, for which the abundance fitness is -0.914 ± 0.18. As for E21Y, the abundance fitness is -0.415 ± 0.23. Then E21T, with -0.129 ± 0.13. Turning to E11I, the abundance fitness was -0.177 ± 0.19. Then E11K, with 0.206 ± 0.19. Regarding E11S, the abundance fitness is -0.16 ± 0.11. Then E11F, with -0.214 ± 0.18; and E11T, with 0.064 ± 0.12. The result for E11Y reads -0.363 ± 0.16; that for E11G, -0.431 ± 0.066. The result for E11Q reads -0.199 ± 0.16; that for E11V, -0.05 ± 0.08; that for E11N, -0.171 ± 0.16. With E11M, the abundance fitness is -0.409 ± 0.14. As to E11R, the abundance fitness was -0.145 ± 0.075.

For E11A, the abundance fitness is -0.137 ± 0.085.

Regarding E11C, the abundance fitness was -0.21 ± 0.12.

For the variant E11L, the abundance fitness was -0.164 ± 0.084.

Take E11H: the abundance fitness was -0.156 ± 0.18. E11P: the abundance fitness was -0.409 ± 0.13. The result for E11D reads -0.116 ± 0.12; that for E11W, -0.435 ± 0.11; that for S13D, -0.062 ± 0.12. Take S13Y: the abundance fitness was -0.18 ± 0.11. In the case of S13A, the abundance fitness was -0.177 ± 0.11.

In the case of S13P, the abundance fitness was -0.358 ± 0.094. The result for S13V reads -0.097 ± 0.074; that for S13N, -0.061 ± 0.2.
